# Molecular target: hemagglutinin (HA0) of influenza A/Puerto Rico/8/34 (PR8) virus, P03452
protein,measurement,value
Recombinant purified human matriptase (amino acids 596-855) (protein) GSDEKDCDCGLRSFTRQARVVGGTDADEGEWPWQVSLHALGQGHICGASLISPNWLVSAAHCYIDDRGFRYSDPTQWTAFLGLHDQSQRSAPGVQERRLKRIISHPFFNDFTFDYDIALLELEKPAEYSSMVRPICLPDASHVFPAGKAIWVTGWGHTQYGGTGALILQKGEIRVINQTTCENLLPQQITPRMMCVGFLSGGVDSCQGDSGGPLSSVEADGRIFQAGVVSWGDGCAQRNKPGVYTRLPLFRDWIKENTGV,"cleavage of HA0 to HA1, Western blot",matriptase was able to cleave viral HA

# From patent publication US20140086936
